US20240076353A1

Molecular target: IL-15R β protein
Experiment: BLI (Octet-RED); IL-15R β immobilized on Ni-NTA biosensors, serial dilutions of the complex as analyte, global 1:1 fit

IL-15R β protein, sequence (P14784 27-240): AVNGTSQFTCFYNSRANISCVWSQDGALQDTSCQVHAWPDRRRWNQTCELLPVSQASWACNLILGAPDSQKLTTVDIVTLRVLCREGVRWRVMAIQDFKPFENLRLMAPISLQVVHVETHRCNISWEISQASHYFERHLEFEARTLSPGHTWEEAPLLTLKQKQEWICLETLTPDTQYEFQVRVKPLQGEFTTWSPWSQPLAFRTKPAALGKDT

Kd: 3.9 nM
koff: 0.000235 s⁻¹
kon: 60400 M⁻¹ s⁻¹
Substance: ALT803 (Fc fusion)
